B1: Outer membrane protein A, P0A910 (parent)
chain: MKKTAIAIAVALAGFATVAQAAPKDNTWYTGAKLGWSQYHDTGFINNNGPTHENQLGAGAFGGYQVNPYVGFEMGYDWLGRMPYKGSVENGAYKAQGVQLTAKLGYPITDDLDIYTRLGGMVWRADTKSNVYGKNHDTGVSPVFAGGVEYAITPEIATRLEYQWTNNIGDAHTIGTRPDNGMLSLGVSYRFGQGEAAPVVAPAPAPAPEVQTKHFTLKSDVLFNFNKATLKPEGQAALDQLYSQLSNLDPKDGSVVVLGYTDRIGSDAYNQGLSERRAQSVVDYLISKGIPADKISARGMGESNPVTGNTCDNVKQRAALIDCLAPDRRVEIEVKGIKDVVTQPQA

Variants of: B1
Conditions: Escherichia coli (strain K12); pH 9.2; 37 °C; Urea; Fluorescence; Glycine 10 mM; reversible: Yes; structure 1QJP; whole UniProt chain shown

MKKTAIAIAVALAGFATVAQAAPKDNTWYTGAKLGWSQYHDTGFINNNGPTHENQLGAGAFGGYQVNPYVGFEMGYDWLGRMPYKGSVENGAYKAQGVQLTAKLGYPITDDLDIYTRLGGMVWRADTKSNVYGKNHDTGVSPVFAGGVEAAITPEIATRLEYQWTNNIGDAHTIGTRPDNGMLSLGVSYRFGQGEAAPVVAPAPAPAPEVQTKHFTLKSDVLFNFNKATLKPEGQAALDQLYSQLSNLDPKDGSVVVLGYTDRIGSDAYNQGLSERRAQSVVDYLISKGIPADKISARGMGESNPVTGNTCDNVKQRAALIDCLAPDRRVEIEVKGIKDVVTQPQA [Y150A]
ddG of mutation (higher = less stable): 2.7 kcal/mol
denaturant m value: 2.4 kcal/mol/M
denaturant midpoint (higher = more stable): 2.8 M
unfolding free energy: 6.6 kcal/mol

MKKTAIAIAVALAGFATVAQAAPKDNTWYTGAKLGWSQYHDTGFINNNGPTHENQLGAGAFGGYQVNPYVGFEMGADWLGRMPYKGSVENGAYKAQGVQLTAKLGYPITDDLDIYTRLGGMVWRADTKSNVYGKNHDTGVSPVFAGGVEYAITPEIATRLEYQWTNNIGDAHTIGTRPDNGMLSLGVSYRFGQGEAAPVVAPAPAPAPEVQTKHFTLKSDVLFNFNKATLKPEGQAALDQLYSQLSNLDPKDGSVVVLGYTDRIGSDAYNQGLSERRAQSVVDYLISKGIPADKISARGMGESNPVTGNTCDNVKQRAALIDCLAPDRRVEIEVKGIKDVVTQPQA [Y76A]
ddG of mutation (higher = less stable): 2.5 kcal/mol
denaturant m value: 2.2 kcal/mol/M
denaturant midpoint (higher = more stable): 3.1 M
unfolding free energy: 6.8 kcal/mol

MKKTAIAIAVALAGFATVAQAAPKDNTWYTGAKLGWSQYHDTGFINNNGPTHENQLGAGAFGGYQVNPYVGFEMGYDWLGRMPYKGSVENGAYKAQGVQLTAKLGYPITDDLDIYTRLGGMVWRADTKSNVYGKNHDTGVSPVFAGGVEYAITPEIATRLEYQATNNIGDAHTIGTRPDNGMLSLGVSYRFGQGEAAPVVAPAPAPAPEVQTKHFTLKSDVLFNFNKATLKPEGQAALDQLYSQLSNLDPKDGSVVVLGYTDRIGSDAYNQGLSERRAQSVVDYLISKGIPADKISARGMGESNPVTGNTCDNVKQRAALIDCLAPDRRVEIEVKGIKDVVTQPQA [W164A]
ddG of mutation (higher = less stable): 3.1 kcal/mol
denaturant m value: 2.2 kcal/mol/M
denaturant midpoint (higher = more stable): 2.8 M
unfolding free energy: 6.2 kcal/mol

MKKTAIAIAVALAGFATVAQAAPKDNTWYTGAKLGWSQYHDTGFINNNGPTHENQLGAGAFGGYQVNPYVGFEMGYDWLGRMPYKGSVENGAYKAQGVQLTAKLGYPITDDLDIYTRLGGMVWRADTKSNVYGKNHDTGVSPVFAGGVEYAITPEIATRLEYQWTNNIGDAHTIGTRPDNGMLSLGVSYRAGQGEAAPVVAPAPAPAPEVQTKHFTLKSDVLFNFNKATLKPEGQAALDQLYSQLSNLDPKDGSVVVLGYTDRIGSDAYNQGLSERRAQSVVDYLISKGIPADKISARGMGESNPVTGNTCDNVKQRAALIDCLAPDRRVEIEVKGIKDVVTQPQA [F191A]
ddG of mutation (higher = less stable): 2.4 kcal/mol
denaturant m value: 2.3 kcal/mol/M
denaturant midpoint (higher = more stable): 3 M
unfolding free energy: 6.9 kcal/mol

MKKTAIAIAVALAGFATVAQAAPKDNTWYTGAKLGWSQYHDTGFINNNGPTHENQLGAGAFGGYQVNPYVGFEMGYDWLGRMPYKGSVENGAYKAQGVQLTAKLGYPITDDLDIYTRLGGMVWRADTKSNVYGKNHDTGVSPVFAGGVEYAITPEIATRLEYQWTNNIGDAHTIGTRPDNGMLSLGVSARFGQGEAAPVVAPAPAPAPEVQTKHFTLKSDVLFNFNKATLKPEGQAALDQLYSQLSNLDPKDGSVVVLGYTDRIGSDAYNQGLSERRAQSVVDYLISKGIPADKISARGMGESNPVTGNTCDNVKQRAALIDCLAPDRRVEIEVKGIKDVVTQPQA [Y189A]
ddG of mutation (higher = less stable): 0.2 kcal/mol
denaturant m value: 3.1 kcal/mol/M
denaturant midpoint (higher = more stable): 2.9 M
unfolding free energy: 9.1 kcal/mol

MKKTAIAIAVALAGFATVAQAAPKDNTWYTGAKLGASQYHDTGFINNNGPTHENQLGAGAFGGYQVNPYVGFEMGYDWLGRMPYKGSVENGAYKAQGVQLTAKLGYPITDDLDIYTRLGGMVWRADTKSNVYGKNHDTGVSPVFAGGVEYAITPEIATRLEYQWTNNIGDAHTIGTRPDNGMLSLGVSYRFGQGEAAPVVAPAPAPAPEVQTKHFTLKSDVLFNFNKATLKPEGQAALDQLYSQLSNLDPKDGSVVVLGYTDRIGSDAYNQGLSERRAQSVVDYLISKGIPADKISARGMGESNPVTGNTCDNVKQRAALIDCLAPDRRVEIEVKGIKDVVTQPQA [W36A]
ddG of mutation (higher = less stable): 2 kcal/mol
denaturant m value: 2.4 kcal/mol/M
denaturant midpoint (higher = more stable): 3.1 M
unfolding free energy: 7.3 kcal/mol

MKKTAIAIAVALAGFATVAQAAPKDNTWYTGAKLGWSQYHDTGFINNNGPTHENQLGAGAFGGYQVNPYVGFEMGYDALGRMPYKGSVENGAYKAQGVQLTAKLGYPITDDLDIYTRLGGMVWRADTKSNVYGKNHDTGVSPVFAGGVEYAITPEIATRLEYQWTNNIGDAHTIGTRPDNGMLSLGVSYRFGQGEAAPVVAPAPAPAPEVQTKHFTLKSDVLFNFNKATLKPEGQAALDQLYSQLSNLDPKDGSVVVLGYTDRIGSDAYNQGLSERRAQSVVDYLISKGIPADKISARGMGESNPVTGNTCDNVKQRAALIDCLAPDRRVEIEVKGIKDVVTQPQA [W78A]
ddG of mutation (higher = less stable): 2 kcal/mol
denaturant m value: 2.4 kcal/mol/M
denaturant midpoint (higher = more stable): 3.1 M
unfolding free energy: 7.3 kcal/mol

MKKTAIAIAVALAGFATVAQAAPKDNTAYTGAKLGWSQYHDTGFINNNGPTHENQLGAGAFGGAQVNPYVGFEMGYDWLGRMPYKGSVENGAYKAQGVQLTAKLGYPITDDLDIYTRLGGMVWRADTKSNVYGKNHDTGVSPVFAGGVEYAITPEIATRLEYQWTNNIGDAHTIGTRPDNGMLSLGVSYRFGQGEAAPVVAPAPAPAPEVQTKHFTLKSDVLFNFNKATLKPEGQAALDQLYSQLSNLDPKDGSVVVLGYTDRIGSDAYNQGLSERRAQSVVDYLISKGIPADKISARGMGESNPVTGNTCDNVKQRAALIDCLAPDRRVEIEVKGIKDVVTQPQA [W28A Y64A]
ddG of mutation (higher = less stable): 6.4 kcal/mol
denaturant m value: 1.9 kcal/mol/M
denaturant midpoint (higher = more stable): 1.6 M
unfolding free energy: 2.9 kcal/mol

Source: FireProtDB (doi:10.1021/ja068849o)
